Results published in US20030125515A1 (published 2003).

Experiments:
[1] = target: gp41 of HIV JRFL (from the JRFL gp160 gene, on pseudotyped virus) (HIV-1 JRFL); assay: cell-based or functional assay
[2] = target: gp41 of HIV HXB2 (from the HXB2 gp160 gene, on pseudotyped virus) (HIV-1 HXB2, UniProt P04578 33-856); assay: cell-based or functional assay

B1: end-locked five-helix protein having SEQ ID NO.: 2 (designed binder)
chain: MCGGGSQLLSGIVQQQNNLLRAIEAQQHLLQLTVWGIKQLQASGGSGGSWMEWDREINNYTSLIHSLIEESQNQQEKNEQELLSGGCGGSQLLSGIVQQQNNLLRAIEAQQHLLQLTVWGIKQLQASGGCGGSWMEWDREINNYTSLIHSLIEESQNQQEKNEQELLSGGSGGSQLLSGIVQQQNNLLRAIEAQQHLLQLTVWGIKQLQASGGGC
modifications: disulfide bond between the cysteine of the N-terminal linker and the cysteine of inside linker 2; disulfide bond between the cysteine of the C-terminal linker and the cysteine of inside linker 3 (as in FIG. 3b)
[1]
  EC50 in the virus-cell fusion assay (HIV luciferase assay, HOS-CD4-CCR5 cells): 0.75 nM
[2]
  EC50 in the virus-cell fusion assay (HIV luciferase assay, HOS-CD4 cells): 15 nM
